Test results taken from US20260022352A1, “COMPOSITIONS AND METHODS FOR PURIFYING […]” (North Carolina State University, priority 2023, published 2026).

Target: VSV-G-pseudo-typed lentiviral vector particles (vesicular stomatitis virus) (UniProt P03522)
Sequence of UniProt P03522 (P03522 17-511): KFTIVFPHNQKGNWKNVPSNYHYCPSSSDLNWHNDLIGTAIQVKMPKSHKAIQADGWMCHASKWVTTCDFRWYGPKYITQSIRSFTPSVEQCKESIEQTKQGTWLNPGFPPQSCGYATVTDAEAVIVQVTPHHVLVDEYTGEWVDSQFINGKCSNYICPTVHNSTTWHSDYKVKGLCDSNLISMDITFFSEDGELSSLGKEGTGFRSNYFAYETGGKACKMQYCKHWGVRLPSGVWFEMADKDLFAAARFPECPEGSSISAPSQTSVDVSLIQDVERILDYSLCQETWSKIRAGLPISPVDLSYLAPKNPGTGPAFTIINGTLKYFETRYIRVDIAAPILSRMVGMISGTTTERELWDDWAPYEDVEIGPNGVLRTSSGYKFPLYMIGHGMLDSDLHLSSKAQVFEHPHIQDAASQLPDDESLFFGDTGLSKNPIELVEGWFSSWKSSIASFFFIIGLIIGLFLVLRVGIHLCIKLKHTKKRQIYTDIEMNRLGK

Row | Sequence | capacity [TU/mL] | LVV adsorbed [TU/mL]
1 | FEKISAAE (peptide) | 5e+08 | –
2 | GKEAAFAA (peptide) | – | > 1e+09
